Measured values: US20250041435A1 (AstraZeneca / MedImmune, published 2025)

Columns and labels:
[1] = target: T1, human STEAP2 (six-transmembrane epithelial antigen of prostate 2) (human, UniProt Q8NFT2 1-490); assay: cell-based or functional assay
T1 sequence: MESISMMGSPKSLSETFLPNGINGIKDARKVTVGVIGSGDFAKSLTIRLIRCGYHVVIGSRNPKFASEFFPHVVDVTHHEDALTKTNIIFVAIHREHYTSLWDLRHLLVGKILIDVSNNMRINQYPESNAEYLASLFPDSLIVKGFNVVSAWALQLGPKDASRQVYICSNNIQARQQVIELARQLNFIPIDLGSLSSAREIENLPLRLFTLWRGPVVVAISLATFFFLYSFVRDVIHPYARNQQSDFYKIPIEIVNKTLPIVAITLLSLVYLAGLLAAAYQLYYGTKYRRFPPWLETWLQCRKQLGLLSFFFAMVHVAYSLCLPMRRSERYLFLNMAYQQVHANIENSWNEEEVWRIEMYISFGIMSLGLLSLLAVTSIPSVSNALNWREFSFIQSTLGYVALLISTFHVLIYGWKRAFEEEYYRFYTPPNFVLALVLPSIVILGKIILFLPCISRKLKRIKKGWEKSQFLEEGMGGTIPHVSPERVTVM

[2] = target: T1, human STEAP2 (six-transmembrane …); assay: cell-based or functional assay; remark: listed apart in the source
[3] = target: T1, human STEAP2 (six-transmembrane …); assay: flow cytometry on LNCaP cells (endogenous human STEAP2), anti-human AF647 secondary
Protocol: (§1) The cell-binding assays were designed to assess the binding affinities for parental 40A3-LO7 and its affinity matured derivatives to both human and murine STEAP2. The binding of the anti-STEAP2 antibodies were detected using a fluorescently labelled anti-human secondary antibody and standard methods of flow cytometry.
(§2) Briefly, a seven point 3-fold serial dilutions of 5× antibodies (mAbs) was prepared in sterile filtered FACS Buffer (5% Heat Inactivated Fetal Bovine Serum in PBS pH 7.4). Ten microliters of the antibody dilutions were added into designated wells in a 96-well U-bottom clear plate. The evaluated cells lines were harvested using cold 0.25% Trypsin-EDTA, resuspended in maintenance media, pelleted, and counted. Cell density was adjusted to 2×10⁶ cells/ml and forty microliters of cells were seeded on top of the antibody dilutions and incubated for 30 minutes. Cells were washed and a solution containing a 1:400 dilution of anti-human secondary antibody and a 1:1000 dilution of DAPI. After another 30 minute incubation, cells were washed, and then transferred to the FACS instrument for analysis.

[4] = target: T1, human STEAP2 (six-transmembrane …); assay: cell-based binding (flow cytometry)
[5] = target: T2, murine chimeric STEAP3-2 protein on AD293 cells (murine); assay: flow cytometry on AD293 muSTEAP3-2 cells, anti-human secondary
T2 construct: Used to test cross-reactivity to mouse STEAP2; also called AD293 muSTEAP3-2; AD293 STEAP3-2
Protocol: as §1, §2

[6] = target: T2, murine chimeric STEAP3-2 protein on …; assay: flow cytometry on AD293 muSTEAP3-2 cells, fluorescent anti-human secondary antibody
Protocol: as §1, §2

[7] = target: T1, human STEAP2 (six-transmembrane …); assay: flow cytometry on LNCaP cells (endogenous human STEAP2)

Binder	IC50 of cell viability, LNCaP cells (CellTiter-Glo) [1]	In Vitro Potency (22Rv1), IC50 of cell viability (CellTiter-Glo) [2]	In Vitro Potency (C4-2), IC50 of cell viability (CellTiter-Glo) [2]	In Vitro Potency (LNCaP), IC50 of cell viability (CellTiter-Glo) [2]	EC50 [3]	EC50 [5]	EC50 [7]	also measured
LO14 SG3932 DAR8 ADC (antibody, human IgG1, kappa, V domains shown, SG3932 on native cysteines (DAR 8 per antibody); SG3932 (TOP1i, cleavable mal-PEG8-val-ala linker) on native cysteines through a thiosuccinimide linkage; DAR 8 per antibody) VH: QVQLQQSGPGLVKPSQTLSLTCAISGDSVSRNSAVWNWIRQSPSRGLEWLGRTYYRSKWYNDYAPSVKSRITINPDTSKNQFSLQLNSVTPEDTAVYYCARGLRQNQFYYYMDVWGKGTTVTVSS VL: not shown	0.3 nM	4.53 nM	2.23 nM	0.22 nM				
40A3-LO14 (antibody, human IgG1, kappa, V domains shown, also called 40A3GL-LO14; LO14 mAb) VH: QVQLQQSGPGLVKPSQTLSLTCAISGDSVSRNSAVWNWIRQSPSRGLEWLGRTYYRSKWYNDYAPSVKSRITINPDTSKNQFSLQLNSVTPEDTAVYYCARGLRQNQFYYYMDVWGKGTTVTVSS VL: not shown					1.67 nM	0.97 nM		fold improvement in binding relative to 40A3-LO7 [4]: 26 fold
LO11 SG3932 DAR8 ADC (antibody, human IgG1, kappa, V domains shown, SG3932 on native cysteines (DAR 8 per antibody); SG3932 (TOP1i, cleavable mal-PEG8-val-ala linker) on native cysteines through a thiosuccinimide linkage; DAR 8 per antibody) VH: QVQLQQSGPGLVKPSQTLSLTCAISGDSVSRNSAVWNWIRQSPSRGLEWLGRTYYRSKWYNDYAPSVKSRITINPDTSKNQFSLQLNSVTPEDTAVYYCARGLLQNQFYYYMDVWGKGTTVTVSS VL: not shown	2.78 nM	32.1 nM	16.5 nM	1.7 nM				
40A3-LO7 (antibody, V domains shown, Germlined, de-risked 40A3; Human IgG1 kappa; also called 40A3GL-LO7; STEAP2-3 VH / STEAP2-3 VL) VH: QVQLQQSGPGLVKPSQTLSLTCAISGDSVSRNSAVWNWIRQSPSRGLEWLGRTYYRSKWYNDYAVSVKSRITINPDTSKNQFSLQLNSVTPEDTAVYYCARGLLQNQFYYYMDVWGKGTTVTVSS VL: not shown							43.3 nM	EC50 (read off the curve) [6]: ~5 µg/mL
40A3-LO11 (antibody, human IgG1, kappa, V domains shown, also called 40A3GL-LO11; LO11 mAb) VH: QVQLQQSGPGLVKPSQTLSLTCAISGDSVSRNSAVWNWIRQSPSRGLEWLGRTYYRSKWYNDYAPSVKSRITINPDTSKNQFSLQLNSVTPEDTAVYYCARGLLQNQFYYYMDVWGKGTTVTVSS VL: not shown					2.38 nM	5.78 nM		
40A3-LO12 (antibody, V domains shown, Human IgG1 kappa) VH: QVQLQQSGPGLVKPSQTLSLTCAISGDSVSRNSAVWNWIRQSPSRGLEWLGRTYYRSKWYNDYAVSVKSRITINPDTSKNQFSLQLNSVTPEDTAVYYCARGLRQNQFYYYMDVWGKGTTVTVSS VL: not shown							1.72 nM	
